In the supplement of paper PMC10598134:
± gives the standard deviation.

Test: collision cross section of modified peptide (TIMS, N2, iRT-aligned); higher = larger / more extended gas-phase ion
In short: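 Collision cross section values rest on the Mason-Schamp equation applied to calibrated, run-aligned mobility data from synthetic peptides. Mobility (1/K0) was calibrated with three reference ions and aligned per run to the median iRT peptide deviation, and 1–3 technical replicates of the most abundant feature per charge state were averaged. Data came from a timsTOF Pro/HT in dda-PASEF mode (nitrogen, ~2.4 mbar) after a 120-min nanoflow C18 gradient at 60 °C.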

[1] = charge state: 2, modification: Succinyl
[2] = charge state: 3, modification: Succinyl
[3] = charge state: 2, modification: Trimethyl (K)
[4] = charge state: 3, modification: Trimethyl (K)
[5] = charge state: 2, modification: hydroxyisobutyryl
[6] = charge state: 3, modification: hydroxyisobutyryl
[7] = charge state: 2, modification: Acetyl (K)
[8] = charge state: 2, modification: Butyryl
[9] = charge state: 2, modification: Crotonyl
[10] = charge state: 3, modification: Dimethyl (K)
[11] = charge state: 2, modification: Formyl
[12] = charge state: 2, modification: Glutarylation
[13] = charge state: 2, modification: GlyGly (K)
[14] = charge state: 3, modification: GlyGly (K)
[15] = charge state: 2, modification: Methyl (K)
[16] = charge state: 3, modification: Methyl (K)
[17] = charge state: 3, modification: Acetyl (K)
[18] = charge state: 3, modification: Glutarylation

ITESVAETAQTIKK [_ITESVAETAQTIK(Succinyl)K_]
collision cross section [1]: 424.69 ± 1.1 Å²
collision cross section [2]: 512.63 ± 2.6 Å²

ITESVAETAQTIKK [_ITESVAETAQTIK(Trimethyl (K))K_]
collision cross section [3]: 451.09 ± 1 Å²
collision cross section [4]: 496.11 ± 2.8 Å²

ITESVAETAQTIKK [_ITESVAETAQTIK(hydroxyisobutyryl)K_]
collision cross section [5]: 425.76 ± 3.1 Å²
collision cross section [6]: 520.92 ± 2 Å²

ITGKNQVTATK [_ITGK(Acetyl (K))NQVTATK_]
collision cross section [7]: 365.02 ± 0.94 Å²

ITGKNQVTATK [_ITGK(Biotin)NQVTATK_]
collision cross section (charge state: 2, modification: Biotin): 389.13 ± 1.7 Å²

ITGKNQVTATK [_ITGK(Butyryl)NQVTATK_]
collision cross section [8]: 370.52 ± 0.71 Å²

ITGKNQVTATK [_ITGK(Crotonyl)NQVTATK_]
collision cross section [9]: 369.54 ± 0.26 Å²

ITGKNQVTATK [_ITGK(Dimethyl (K))NQVTATK_]
collision cross section (charge state: 2, modification: Dimethyl (K)): 369.07 ± 1.1 Å²
collision cross section [10]: 427.9 Å²

ITGKNQVTATK [_ITGK(Formyl)NQVTATK_]
collision cross section [11]: 360.79 ± 0.79 Å²

ITGKNQVTATK [_ITGK(Gluratylation)NQVTATK_]
collision cross section [12]: 369.78 ± 0.66 Å²

ITGKNQVTATK [_ITGK(GlyGly (K))NQVTATK_]
collision cross section [13]: 373.22 ± 0.38 Å²
collision cross section [14]: 442.8 ± 1.1 Å²

ITGKNQVTATK [_ITGK(Malonyl)NQVTATK_]
collision cross section (charge state: 2, modification: Malonyl): 362.15 ± 0.018 Å²

ITGKNQVTATK [_ITGK(Methyl (K))NQVTATK_]
collision cross section [15]: 372.71 ± 1.1 Å²
collision cross section [16]: 447.83 ± 5.1 Å²

ITGKNQVTATK [_ITGK(Propionyl)NQVTATK_]
collision cross section (charge state: 2, modification: Propionyl): 368.3 ± 0.65 Å²

ITGKNQVTATK [_ITGK(Succinyl)NQVTATK_]
collision cross section [1]: 364.93 ± 0.74 Å²
collision cross section [2]: 446.25 Å²

ITGKNQVTATK [_ITGK(Trimethyl (K))NQVTATK_]
collision cross section [3]: 375.05 ± 1.7 Å²
collision cross section [4]: 426.22 Å²

ITGKNQVTATK [_ITGK(hydroxyisobutyryl)NQVTATK_]
collision cross section [5]: 372.92 ± 1.4 Å²

ITLSKHQNVQLPR [_ITLSK(Acetyl (K))HQNVQLPR_]
collision cross section [7]: 436.23 ± 3.2 Å²
collision cross section [17]: 526.67 ± 2.1 Å²

ITLSKHQNVQLPR [_ITLSK(Biotin)HQNVQLPR_]
collision cross section (charge state: 3, modification: Biotin): 502.67 Å²

ITLSKHQNVQLPR [_ITLSK(Butyryl)HQNVQLPR_]
collision cross section [8]: 443.37 ± 0.53 Å²
collision cross section (charge state: 3, modification: Butyryl): 503.02 ± 28 Å²

ITLSKHQNVQLPR [_ITLSK(Crotonyl)HQNVQLPR_]
collision cross section [9]: 443.04 ± 1.2 Å²
collision cross section (charge state: 3, modification: Crotonyl): 519.02 ± 26 Å²

ITLSKHQNVQLPR [_ITLSK(Dimethyl (K))HQNVQLPR_]
collision cross section [10]: 489.75 ± 1.2 Å²

ITLSKHQNVQLPR [_ITLSK(Formyl)HQNVQLPR_]
collision cross section [11]: 435.58 ± 0.72 Å²
collision cross section (charge state: 3, modification: Formyl): 504.15 ± 24 Å²

ITLSKHQNVQLPR [_ITLSK(Gluratylation)HQNVQLPR_]
collision cross section [12]: 422.98 ± 0.48 Å²
collision cross section [18]: 526.02 ± 27 Å²

ITLSKHQNVQLPR [_ITLSK(GlyGly (K))HQNVQLPR_]
collision cross section [13]: 441.27 Å²
collision cross section [14]: 493.46 ± 2 Å²

ITLSKHQNVQLPR [_ITLSK(Malonyl)HQNVQLPR_]
collision cross section (charge state: 3, modification: Malonyl): 478.94 ± 1.8 Å²

ITLSKHQNVQLPR [_ITLSK(Methyl (K))HQNVQLPR_]
collision cross section [15]: 432.38 Å²
collision cross section [16]: 510.25 ± 21 Å²

ITLSKHQNVQLPR [_ITLSK(Succinyl)HQNVQLPR_]
collision cross section [1]: 418.56 ± 0.53 Å²
collision cross section [2]: 485.89 ± 2 Å²

ITLSKHQNVQLPR [_ITLSK(Trimethyl (K))HQNVQLPR_]
collision cross section [4]: 492.22 ± 3.3 Å²

ITLSKHQNVQLPR [_ITLSK(hydroxyisobutyryl)HQNVQLPR_]
collision cross section [5]: 443.83 ± 0.038 Å²
collision cross section [6]: 520.86 ± 27 Å²

IVEKYGYTHLSAGELLR [_IVEK(Acetyl (K))YGYTHLSAGELLR_]
collision cross section [17]: 562.4 ± 1.8 Å²

IVEKYGYTHLSAGELLR [_IVEK(Dimethyl (K))YGYTHLSAGELLR_]
collision cross section [10]: 550.8 Å²

IVEKYGYTHLSAGELLR [_IVEK(Gluratylation)YGYTHLSAGELLR_]
collision cross section [18]: 567.6 ± 0.21 Å²

IVEKYGYTHLSAGELLR [_IVEK(GlyGly (K))YGYTHLSAGELLR_]
collision cross section [14]: 548.84 ± 0.37 Å²
